Non-standard residues stand in square brackets, D forms with d. Primed or numbered codes have the meaning given here. No end group written: not given here. APC = aminopyrrolidine carboxylic acid (2-aminopyrrolidine-4-carboxylic acid); ACPC(3) = 2-aminocyclopentane carboxylic acid (cyclic beta residue); ACPC″ = 2-aminocyclopentane carboxylic acid (X); ACPC = 2-aminocyclopentane carboxylic acid; hArg = N=C(N)NCCCC[C@H](N)C(=O)O; β3hE = N[C@@H](CCC(=O)O)CC(=O)O; β3hQ = NC(=O)CC[C@H](N)CC(=O)O; β3hD = NC(CC(=O)O)CC(=O)O; β3hS = N[C@@H](CO)CC(=O)O; β3hA = C[C@H](N)CC(=O)O; Aib = CC(C)(N)C(=O)O
T1: rat parathyroid hormone receptor 1, wild-type (rPTHR-1) (rat, UniProt P25961 27-591)
T1 sequence (looked up): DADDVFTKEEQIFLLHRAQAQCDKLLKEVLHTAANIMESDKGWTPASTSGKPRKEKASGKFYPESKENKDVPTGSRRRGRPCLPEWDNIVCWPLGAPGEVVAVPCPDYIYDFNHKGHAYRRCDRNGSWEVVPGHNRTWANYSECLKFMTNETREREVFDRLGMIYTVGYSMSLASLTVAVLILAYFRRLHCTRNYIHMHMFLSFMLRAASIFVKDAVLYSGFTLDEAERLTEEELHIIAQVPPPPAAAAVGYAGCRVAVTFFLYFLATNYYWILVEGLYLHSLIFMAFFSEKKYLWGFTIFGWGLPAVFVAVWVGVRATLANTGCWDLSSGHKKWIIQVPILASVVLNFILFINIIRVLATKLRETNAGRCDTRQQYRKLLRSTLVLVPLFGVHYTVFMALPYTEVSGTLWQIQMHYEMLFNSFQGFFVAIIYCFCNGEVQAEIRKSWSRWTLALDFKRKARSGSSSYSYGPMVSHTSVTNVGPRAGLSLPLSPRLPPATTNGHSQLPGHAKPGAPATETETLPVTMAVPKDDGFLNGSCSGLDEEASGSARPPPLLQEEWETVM

T2: human parathyroid hormone receptor 1, wild-type (hPTHR-1) (human, UniProt Q03431 27-593)
T2 sequence (looked up): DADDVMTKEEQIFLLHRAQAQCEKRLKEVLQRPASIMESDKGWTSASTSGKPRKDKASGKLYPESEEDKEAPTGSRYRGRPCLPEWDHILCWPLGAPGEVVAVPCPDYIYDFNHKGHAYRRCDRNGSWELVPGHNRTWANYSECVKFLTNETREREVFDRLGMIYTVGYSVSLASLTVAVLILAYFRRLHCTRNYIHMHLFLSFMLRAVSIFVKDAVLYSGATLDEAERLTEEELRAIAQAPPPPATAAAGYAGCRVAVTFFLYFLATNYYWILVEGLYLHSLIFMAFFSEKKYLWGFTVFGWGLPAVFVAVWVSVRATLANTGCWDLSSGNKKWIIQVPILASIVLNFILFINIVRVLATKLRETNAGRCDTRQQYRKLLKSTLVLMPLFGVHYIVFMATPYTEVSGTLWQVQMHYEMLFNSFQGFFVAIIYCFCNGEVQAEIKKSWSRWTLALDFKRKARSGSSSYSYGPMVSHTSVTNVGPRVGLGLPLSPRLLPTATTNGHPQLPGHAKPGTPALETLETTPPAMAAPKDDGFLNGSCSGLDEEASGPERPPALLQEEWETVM

T3: PTHR-1 (species and cells not stated for the assay) (Homo sapiens (Human), UniProt Q03431 27-593)
T3 sequence: T2 sequence (looked up)

T4: delNT PTHR1 (human, UniProt Q03431 27-593)
T4 sequence (looked up): T2 sequence (looked up)

B1: M-PTH(1-34) (peptide)
peptide: AVAEIQLMHQ[hArg]AKWLNSMRRVEWLRKKLQDVHNF-NH2
modifications: N-terminus assumed
SMILES: CC[C@H](C)[C@H](NC(=O)[C@H](CCC(=O)O)NC(=O)[C@H](C)NC(=O)[C@@H](NC(=O)[C@H](C)N)C(C)C)C(=O)N[C@@H](CCC(N)=O)C(=O)N[C@@H](CC(C)C)C(=O)N[C@@H](CCSC)C(=O)N[C@@H](Cc1c[nH]cn1)C(=O)N[C@@H](CCC(N)=O)C(=O)N[C@@H](CCCCNC(=N)N)C(=O)N[C@@H](C)C(=O)N[C@@H](CCCCN)C(=O)N[C@@H](Cc1c[nH]c2ccccc12)C(=O)N[C@@H](CC(C)C)C(=O)N[C@@H](CC(N)=O)C(=O)N[C@@H](CO)C(=O)N[C@@H](CCSC)C(=O)N[C@@H](CCCNC(=N)N)C(=O)N[C@@H](CCCNC(=N)N)C(=O)N[C@H](C(=O)N[C@@H](CCC(=O)O)C(=O)N[C@@H](Cc1c[nH]c2ccccc12)C(=O)N[C@@H](CC(C)C)C(=O)N[C@@H](CCCNC(=N)N)C(=O)N[C@@H](CCCCN)C(=O)N[C@@H](CCCCN)C(=O)N[C@@H](CC(C)C)C(=O)N[C@@H](CCC(N)=O)C(=O)N[C@@H](CC(=O)O)C(=O)N[C@H](C(=O)N[C@@H](Cc1c[nH]cn1)C(=O)N[C@@H](CC(N)=O)C(=O)N[C@@H](Cc1ccccc1)C(N)=O)C(C)C)C(C)C
B2: A3 (peptide)
peptide: SVSEIQLMHNLGKHLNSMERVEWLRKKLQDVHNF
modifications: C-terminal amide; three β3 residues with native side chains, αααβ pattern; bold marks lost in text (inferred 23, 27, 31)
B3: β3Ala(1) PTH(1-34) (peptide)
peptide: [β3hA]VSEIQLMHNLGKHLNSMERVEWLRKKLQDVHNF-NH2
modifications: N-terminus assumed
SMILES: CC[C@H](C)[C@H](NC(=O)[C@H](CCC(=O)O)NC(=O)[C@H](CO)NC(=O)[C@@H](NC(=O)C[C@H](C)N)C(C)C)C(=O)N[C@@H](CCC(N)=O)C(=O)N[C@@H](CC(C)C)C(=O)N[C@@H](CCSC)C(=O)N[C@@H](Cc1c[nH]cn1)C(=O)N[C@@H](CC(N)=O)C(=O)N[C@@H](CC(C)C)C(=O)NCC(=O)N[C@@H](CCCCN)C(=O)N[C@@H](Cc1c[nH]cn1)C(=O)N[C@@H](CC(C)C)C(=O)N[C@@H](CC(N)=O)C(=O)N[C@@H](CO)C(=O)N[C@@H](CCSC)C(=O)N[C@@H](CCC(=O)O)C(=O)N[C@@H](CCCNC(=N)N)C(=O)N[C@H](C(=O)N[C@@H](CCC(=O)O)C(=O)N[C@@H](Cc1c[nH]c2ccccc12)C(=O)N[C@@H](CC(C)C)C(=O)N[C@@H](CCCNC(=N)N)C(=O)N[C@@H](CCCCN)C(=O)N[C@@H](CCCCN)C(=O)N[C@@H](CC(C)C)C(=O)N[C@@H](CCC(N)=O)C(=O)N[C@@H](CC(=O)O)C(=O)N[C@H](C(=O)N[C@@H](Cc1c[nH]cn1)C(=O)N[C@@H](CC(N)=O)C(=O)N[C@@H](Cc1ccccc1)C(N)=O)C(C)C)C(C)C

Each binder was assayed against T1, rat parathyroid hormone receptor 1, … (assay: cell-based or functional assay).
Set-up: AUC-on / AUC-washout: unit not given beside the values

Row | Binder | AUC Ratio | AUC-on | AUC-washout
1 | B1 | 14.8 | 43000 | 640000

What follows are binders tested against T2, human parathyroid hormone receptor 1, … (assay: cell-based or functional assay).

Row | Binder | cAMP EC50 [nM]
2 | B2 | 0.29

Target: T1, rat parathyroid hormone receptor 1, …
Assay: cell-based or functional assay
Remark: another data set of the same source

Row | Binder | cAMP Max [cps × 10-3]
3 | B2 | 74

What follows are binders tested against T3, PTHR-1 (species and cells not stated …) (assay: cell-based or functional assay).

Row | Binder | Fold PTH [fold] | cAMP EC50 [nM]
4 | [ACPC″]V[Aib]E[ACPC″]Q[ACPC″]MHQ[hArg]AK[ACPC″]LNS[ACPC″]RRV[APC]WLR[APC]KLQ[ACPC″]VHN[ACPC″]-NH2 [M-X1,5,7-FcycD6] | 9.5 | 0.78
5 | B1 | 4.2 | 0.34
6 | H[ACPC(3)]V[Aib]E[ACPC(3)]Q[ACPC(3)]MHQ[hArg]AK[ACPC(3)]LNS[ACPC(3)]RRV[β3hE]WLR[APC]KLQ[β3hD]VHN[ACPC(3)]-NH2 (not fully specified) [M-X1,5,7-CycD6] | 3.8 | 0.31

Target: T2, human parathyroid hormone receptor 1, …
Assay: cell-based or functional assay
Remark: another data set of the same source

Row | Binder | cAMP EC50 [nM]
7 | B2 | 0.29

Target: T2, human parathyroid hormone receptor 1, …
Assay: cell-based or functional assay
Remark: another data set of the same source

Row | Binder | Fold PTH [fold] | cAMP EC50 [nM]
8 | SV[ACPC]EIQLMHNLGKHLNSMERVEWLRKKLQDVHNF-NH2 [ACPC(3) PTH(1-34)] | 126 | 11.5
9 | B3 | 2.2 | 0.2
10 | SVSEIQL[ACPC]HNLGKHLNSMERVEWLRKKLQDVHNF-NH2 [ACPC(8) PTH(1-34)] | 107 | 9.74
11 | SVSEI[β3hQ]LMHNLGKHLNSMERVEWLRKKLQDVHNF-NH2 [β3Gln(6) PTH(1-34)] |  | 14.6
12 | SVSEI[ACPC]LMHNLGKHLNSMERVEWLRKKLQDVHNF-NH2 [ACPC(6) PTH(1-34)] | 3.7 | 0.34
13 | [ACPC]VSEIQLMHNLGKHLNSMERVEWLRKKLQDVHNF-NH2 [ACPC(1) PTH(1-34)] | 1.6 | 0.15
14 | [β3hS]VSEIQLMHNLGKHLNSMERVEWLRKKLQDVHNF-NH2 [β3Ser(1) PTH(1-34)] |  | 0.06
15 | S[ACPC]SEIQLMHNLGKHLNSMERVEWLRKKLQDVHNF-NH2 [ACPC(2) PTH(1-34)] | 3 | 0.27
16 | SVSE[ACPC]QLMHNLGKHLNSMERVEWLRKKLQDVHNF-NH2 [ACPC(5) PTH(1-34)] | 1.9 | 0.17

The binders below were run against T4, delNT PTHR1 (assay: cell-based or functional assay).

Row | Binder | Fold PTH [fold] | cAMP EC50 [nM]
17 | SV[ACPC]EIQLMHNLGKHLNSMERVEWLRKKLQDVHNF-NH2 [ACPC(3) PTH(1-34)] | 130 | 7800
18 | B3 | 0.4 | 25
19 | SVSEIQL[ACPC]HNLGKHLNSMERVEWLRKKLQDVHNF-NH2 [ACPC(8) PTH(1-34)] | 480 | 29000
20 | SVSEI[β3hQ]LMHNLGKHLNSMERVEWLRKKLQDVHNF-NH2 [β3Gln(6) PTH(1-34)] |  | 6700
21 | SVSEI[ACPC]LMHNLGKHLNSMERVEWLRKKLQDVHNF-NH2 [ACPC(6) PTH(1-34)] | 360 | 22000
22 | [ACPC]VSEIQLMHNLGKHLNSMERVEWLRKKLQDVHNF-NH2 [ACPC(1) PTH(1-34)] | 8 | 500
23 | S[ACPC]SEIQLMHNLGKHLNSMERVEWLRKKLQDVHNF-NH2 [ACPC(2) PTH(1-34)] | 170 | 11000
24 | SVSE[ACPC]QLMHNLGKHLNSMERVEWLRKKLQDVHNF-NH2 [ACPC(5) PTH(1-34)] | 65 | 4100

Target: T2, human parathyroid hormone receptor 1, …
Assay: cell-based or functional assay
Remark: another data set of the same source

Row | Binder | cAMP EC50 [nM]
25 | [ACPC]VSE[ACPC]Q[ACPC]LHDKGKSIQDLRRRELLEKLL[Aib]KLHTA-NH2 [BA058 ACPC(1,5,7)] | 0.26
26 | [ACPC]VSE[ACPC]Q[ACPC]LHDKGK[ACPC]IQD[ACPC]RRR[APC]LLE[APC]LL[Aib][ACPC]LHT[ACPC]-NH2 [CycD6 BA058 ACPC(1,5,7)] | 0.65
27 | AVSEHQLLHDKGK[ACPC]IQD[ACPC]RRR[APC]LLE[APC]LL[Aib][ACPC]LHT[ACPC]-NH2 [CycD6 BA058] | 0.18
28 | [ACPC]VSEHQ[ACPC]LHDKGKSIQDLRRRELLEKLL[Aib]KLHT[ACPC]-NH2 (not fully specified; also: D6 β3 residues, positions not shown (marking lost)) [D6 BA058 ACPC(1,7)] | 141
29 | [ACPC]VSEHQ[ACPC]LHDKGKSIQDLRRRELLEKLL[Aib]KLHTA-NH2 [BA058 ACPC(1,7)] | 4.69
30 | [ACPC]VSEHQ[ACPC]LHDKGK[ACPC]IQD[ACPC]RRR[APC]LLE[APC]LL[Aib][ACPC]LHT[ACPC]-NH2 [CycD6 BA058 ACPC(1,7)] | 18.9

From patent US20140378382A1 (WISCONSIN ALUMNI RESEARCH FOUNDATION, published 2014)
